Laboratory results as given in publication doi:10.1101/2025.11.12.688043 (bioRxiv, 2025).

Biological target: the molecule itself
Experiment: cryo-EM structure

B1: Saccharomyces cerevisiae TOK1, wild type (natural protein, UniProt P40310 1-691, looked up)
chain: MTRFMNSFAKQTLGYGNMATVEQESSAQAVDSHSNNTPKQAKGVLAEELKDALRFRDERVSIINAEPSSTLFVFWFVVSCYFPVITACLGPVANTISIACVVEKWRSLKNNSVVTNPRSNDTDVLMNQVKTVFDPPGIFAVNIISLVLGFTSNIILMLHFSKKLTYLKSQLINITGWTIAGGMLLVDVIVCSLNDMPSIYSKTIGFWFACISSGLYLVCTIILTIHFIGYKLGKYPPTFNLLPNERSIMAYTVLLSLWLIWGAGMFSGLLHITYGNALYFCTVSLLTVGLGDILPKSVGAKIMVLIFSLSGVVLMGLIVFMTRSIIQKSSGPIFFFHRVEKGRSKSWKHYMDSSKNLSEREAFDLMKCIRQTASRKQHWFSLSVTIAIFMAFWLLGALVFKFAENWSYFNCIYFCFLCLLTIGYGDYAPRTGAGRAFFVIWALGAVPLMGAILSTVGDLLFDISTSLDIKIGESFNNKVKSIVFNGRQRALSFMVNTGEIFEESDTADGDLEENTTSSQSSQISEFNDNNSEENDSGVTSPPASLQESFSSLSKASSPEGILPLEYVSSAEYALQDSGTCNLRNLQELLKAVKKLHRICLADKDYTLSFSDWSYIHKLHLRNITDIEEYTRGPEFWISPDTPLKFPLNEPHFAFMMLFKNIEELVGNLVEDEELYKVISKRKFLGEHRKTL
- stoichiometry N: 2
